Data: US7264314B2, “Adrenocorticotropic hormone analogs and related methods” (priority 2004, dated 2007)
No end group written: not given here.

Target: T1, adrenal ACTH receptors such as MC-2R (explanted adrenal membrane) (Mus musculus, UniProt Q64326)
T1 construct: the adrenal halves were macerated or otherwise dissociated using Dounce Homogenizer to form a membrane fraction; from tissue; host or cells: membrane fraction of explanted mouse adrenal glands
Assay: in vitro Serum-free Adrenal Competitive Binding Assay
Design: species or system mice
Details: cold peptide at 10 nM, 100 nM, 1000 nM
Excerpt: ACTH analog compounds that bind to adrenal membrane with a greater affinity than endogenous unmodified ACTH, and are able to displace unmodified ACTH can be identified using an in vitro Serum-free Adrenal Competitive Binding Assay (Example 3). […] A higher CPM level indicates the presence of greater amounts of the radiolabelled compound. […] Column 220 indicates the level of radio-labeled unmodified mACTH(1–24) detected after combining the explanted adrenal membrane with only the radio-labeled mACTH(1–24) for 2 hours.(no competitive binding). Columns 230, 240, and 250 show the results of competitive binding assays for binding of non-radio-labeled (“cold”) mACTH(1–24) to displace the radio-labeled mACTH(1–24) from the explanted adrenal membrane (measured in column 220) by competitive binding to receptors such as MC-2R on the adrenal membrane. […]
ACTH analogs with the ability to bind adrenal receptors with a greater affinity than compounds with known adrenal binding activity (preferably ACTH) can also be identified by performing an in vitro Adrenal Competitive Binding Assay, whereby measurement of the reduction in the amount of the radiolabelled adrenal-binding compound (e.g., ACTH) is measured at various concentrations of non-radio-labeled ACTH analog test compound in a medium containing explanted adrenal membrane. […]

T1 sequence (Q64326 whole entry): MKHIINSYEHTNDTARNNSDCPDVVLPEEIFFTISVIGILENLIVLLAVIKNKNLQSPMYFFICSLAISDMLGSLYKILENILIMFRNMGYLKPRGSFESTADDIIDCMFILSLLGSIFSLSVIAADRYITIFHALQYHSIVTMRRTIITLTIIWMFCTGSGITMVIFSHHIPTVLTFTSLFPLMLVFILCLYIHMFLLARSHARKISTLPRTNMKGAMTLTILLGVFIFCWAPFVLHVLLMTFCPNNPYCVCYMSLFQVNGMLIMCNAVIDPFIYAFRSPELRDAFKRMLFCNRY
T1 sequence (Q9D159 whole entry partner): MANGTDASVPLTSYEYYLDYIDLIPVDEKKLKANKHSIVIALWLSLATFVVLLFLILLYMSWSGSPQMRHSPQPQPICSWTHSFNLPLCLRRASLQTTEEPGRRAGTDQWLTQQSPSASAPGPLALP

Q: With “N-Ser^1-Tyr-Ser-Met-Glu^5-His-Phe-Arg-Trp-Gly^10-Lys-Pro-Val-Gly-Lys^15-Arg-Ala-Ala-Trp-Val^20-Lys-Val-Tyr-Pro-Ac (SYSMEHFRWGKPVGKRAAWVKVYP; not fully specified (C-terminus); printed as N-Ser1-Tyr-Ser-Met-Glu5-His-Phe-Arg-Trp-Gly10-Lys-Pro-Val-Gly-Lys15-Arg-Ala-Ala-Trp-Val20-Lys-Val-Tyr-Pro-Ac) [AT814]” as the substance, how does the “displacement of radio-labeled mACTH(1–24) from explanted adrenal membrane (CPM)” value read?
A: The value was “displacement of the radio-labeled mACTH(1–24)”.
